Measured values from patent US12180519B2, “Cocaine esterase mutant and use thereof” (Hangzhou Normal University, priority 2021, dated 2024).

Assay: Enzyme activity analysis: in vitro catalytic reaction of CocE enzymes to substrate BZE (HPLC, Michaelis-Menten)
Type: biochemical
Details: for RCE, ratio of catalytic efficiency of the mutant enzyme to BZE and that of the wildtype enzyme / Km / kcat: substrate BZE; for Km / kcat: 25° C., 0.1 M phosphate buffer pH 7.4
Text: Firstly, an experimental method for detecting a substrate BZE and a product benzoic acid BA by HPLC was established. Both BZE and BA had strong ultraviolet absorption at 230 nm. In HPLC analysis, acetonitrile and 0.1% formic acid were used as mobile phases to separate BZE and BA by C18 liquid chromatography column. The absorption of BZE and BA at wavelength 230 nm was detected by an ultraviolet detector, and linear standard curves of BZE and BA were obtained. The activity of BZE reaction catalyzed by CocE was determined, and the reaction temperature was 25° C., with three repetitions in each group. An enzymatic reaction was started by 50 μL of substrate BZE solution with 50 μL of enzyme solution (diluted with 0.1 M phosphate buffer (pH 7.4)).
50 μL of 10% perchloric acid was added to stop the reaction, and then, 50 μL of acetonitrile was added, and the mixture was centrifuged at 12,000 rpm for 5 minutes. Then, the supernatant was diluted to an appropriate multiple and injected into […]. The peak time, peak areas and curves of BZE and BA were compared, and the residual BZE concentration and the BA concentration in the reaction sample were calculated. The kcat and KM of each mutant could be obtained by calculating the reaction rates of BA catalyzed by enzyme at different substrate concentrations, drawing a kinetic curve of the enzyme reaction with GraphPad Prism 8, and performing Michaelis-Menten kinetic analysis.

| Molecule | RCE, ratio of catalytic efficiency of the mutant enzyme to BZE and that of the wildtype enzyme | Km | kcat | catalytic efficiency on benzoylecgonine compared with the wildtype enzyme (in words) |
| --- | --- | --- | --- | --- |
| Wildtype WT: wildtype bacterial cocaine esterase, amino acid sequence SEQ ID No. 1 (protein, listed as Rhodococcus sp.) MVDGNYSVASNVMVPMRDGVRLAVDLYRPDADGPVPVLLVRNPYDKFDVFAWSTQSTNWLEFVRDGYAVVIQDTRGLFASEGEFVPHVDDEADAEDTLSWILEQAWCDGNVGMFGVSYLGVTQWQAAVSGVGGLKAIAPSMASADLYRAPWYGPGGALSVEALLGWSALIGRQLITSRSDARPEDAADFVQLAAICNDVAGAASVTPLAEQPLLGRLIPWVIDQVVDHPDNDESWQSISLFERLGGLATPALITAGWYDGFVGESLRTFVAVKDNADARLVVGPWSHSNLTGRNADRKFGCAATYPIQEATTMHKAFFDRHLRGETDALAGVPKVRLFVMGIDEWRDETDWPLPDTAYTPFYLGGSGAANTSTGGGTLSTSISGTESADTYLYDPADPVPSLGGTLLFHNGDNGPADQRPIHDRDDVLCYSTEVLTDPVEVTGTVSARLFVSSSAVDTDFTAKLVDVFPDGRAIALCDGIVRMRYRETLVNPTLIEAGEIYEVAIDMLATSNVFLPGHRIMVQVSSSNFPKYDRNSNTGGVIAREQLEEMCTAVNRIHRGPEHPSHIVLPIIKR | 1.0 | 5150 µM | 5.02 s⁻¹ | – |
| V116K: cocaine esterase mutant, 116th valine mutated into lysine (protein, listed as Rhodococcus sp.) MVDGNYSVASNVMVPMRDGVRLAVDLYRPDADGPVPVLLVRNPYDKFDVFAWSTQSTNWLEFVRDGYAVVIQDTRGLFASEGEFVPHVDDEADAEDTLSWILEQAWCDGNVGMFGKSYLGVTQWQAAVSGVGGLKAIAPSMASADLYRAPWYGPGGALSVEALLGWSALIGRQLITSRSDARPEDAADFVQLAAICNDVAGAASVTPLAEQPLLGRLIPWVIDQVVDHPDNDESWQSISLFERLGGLATPALITAGWYDGFVGESLRTFVAVKDNADARLVVGPWSHSNLTGRNADRKFGCAATYPIQEATTMHKAFFDRHLRGETDALAGVPKVRLFVMGIDEWRDETDWPLPDTAYTPFYLGGSGAANTSTGGGTLSTSISGTESADTYLYDPADPVPSLGGTLLFHNGDNGPADQRPIHDRDDVLCYSTEVLTDPVEVTGTVSARLFVSSSAVDTDFTAKLVDVFPDGRAIALCDGIVRMRYRETLVNPTLIEAGEIYEVAIDMLATSNVFLPGHRIMVQVSSSNFPKYDRNSNTGGVIAREQLEEMCTAVNRIHRGPEHPSHIVLPIIKR | 61.2 | 89.6 µM | 5.34 s⁻¹ | greatly improved |
| T172R/G173Q/L196C/I301C: cocaine esterase mutant with the named mutations, comparator without V116K (protein, listed as Rhodococcus sp.) MVDGNYSVASNVMVPMRDGVRLAVDLYRPDADGPVPVLLVRNPYDKFDVFAWSTQSTNWLEFVRDGYAVVIQDTRGLFASEGEFVPHVDDEADAEDTLSWILEQAWCDGNVGMFGVSYLGVTQWQAAVSGVGGLKAIAPSMASADLYRAPWYGPGGALSVEALLGWSALIGRQLITSRSDARPEDAADFVQLAAICNDVAGAASVTPLAEQPLLGRLIPWVIDQVVDHPDNDESWQSISLFERLGGLATPALITAGWYDGFVGESLRTFVAVKDNADARLVVGPWSHSNLTGRNADRKFGCAATYPIQEATTMHKAFFDRHLRGETDALAGVPKVRLFVMGIDEWRDETDWPLPDTAYTPFYLGGSGAANTSTGGGTLSTSISGTESADTYLYDPADPVPSLGGTLLFHNGDNGPADQRPIHDRDDVLCYSTEVLTDPVEVTGTVSARLFVSSSAVDTDFTAKLVDVFPDGRAIALCDGIVRMRYRETLVNPTLIEAGEIYEVAIDMLATSNVFLPGHRIMVQVSSSNFPKYDRNSNTGGVIAREQLEEMCTAVNRIHRGPEHPSHIVLPIIKR | 2.6 | 3710 µM | 9.278 s⁻¹ | – |
| T172R/G173Q/L196C/I301C/V116K: cocaine esterase mutant of SEQ ID No. 1 with the named mutations (protein, UniProt Q9L9D7 1-574, looked up, variant T172R G173Q L196C I301C V116K) Cocaine esterase: MVDGNYSVASNVMVPMRDGVRLAVDLYRPDADGPVPVLLVRNPYDKFDVFAWSTQSTNWLEFVRDGYAVVIQDTRGLFASEGEFVPHVDDEADAEDTLSWILEQAWCDGNVGMFGKSYLGVTQWQAAVSGVGGLKAIAPSMASADLYRAPWYGPGGALSVEALLGWSALIGRQLITSRSDARPEDAADFVQLAAICNDVAGAASVTPLAEQPLLGRLIPWVIDQVVDHPDNDESWQSISLFERLGGLATPALITAGWYDGFVGESLRTFVAVKDNADARLVVGPWSHSNLTGRNADRKFGCAATYPIQEATTMHKAFFDRHLRGETDALAGVPKVRLFVMGIDEWRDETDWPLPDTAYTPFYLGGSGAANTSTGGGTLSTSISGTESADTYLYDPADPVPSLGGTLLFHNGDNGPADQRPIHDRDDVLCYSTEVLTDPVEVTGTVSARLFVSSSAVDTDFTAKLVDVFPDGRAIALCDGIVRMRYRETLVNPTLIEAGEIYEVAIDMLATSNVFLPGHRIMVQVSSSNFPKYDRNSNTGGVIAREQLEEMCTAVNRIHRGPEHPSHIVLPIIKR | 210.3 | 46.3 µM | 9.477 s⁻¹ | – |
| T172R/G173Q/L196C/I301C/V116K/A51Y: cocaine esterase mutant of SEQ ID No. 1 with the named mutations (protein, UniProt Q9L9D7 1-574, looked up, variant T172R G173Q L196C I301C V116K A51Y) Cocaine esterase: MVDGNYSVASNVMVPMRDGVRLAVDLYRPDADGPVPVLLVRNPYDKFDVFYWSTQSTNWLEFVRDGYAVVIQDTRGLFASEGEFVPHVDDEADAEDTLSWILEQAWCDGNVGMFGKSYLGVTQWQAAVSGVGGLKAIAPSMASADLYRAPWYGPGGALSVEALLGWSALIGRQLITSRSDARPEDAADFVQLAAICNDVAGAASVTPLAEQPLLGRLIPWVIDQVVDHPDNDESWQSISLFERLGGLATPALITAGWYDGFVGESLRTFVAVKDNADARLVVGPWSHSNLTGRNADRKFGCAATYPIQEATTMHKAFFDRHLRGETDALAGVPKVRLFVMGIDEWRDETDWPLPDTAYTPFYLGGSGAANTSTGGGTLSTSISGTESADTYLYDPADPVPSLGGTLLFHNGDNGPADQRPIHDRDDVLCYSTEVLTDPVEVTGTVSARLFVSSSAVDTDFTAKLVDVFPDGRAIALCDGIVRMRYRETLVNPTLIEAGEIYEVAIDMLATSNVFLPGHRIMVQVSSSNFPKYDRNSNTGGVIAREQLEEMCTAVNRIHRGPEHPSHIVLPIIKR | 357.4 | 43.6 µM | 15.18 s⁻¹ | – |
| T172R/G173Q/L196C/I301C/V116K/A51F: cocaine esterase mutant of SEQ ID No. 1 with the named mutations (protein, UniProt Q9L9D7 1-574, looked up, variant T172R G173Q L196C I301C V116K A51F) Cocaine esterase: MVDGNYSVASNVMVPMRDGVRLAVDLYRPDADGPVPVLLVRNPYDKFDVFFWSTQSTNWLEFVRDGYAVVIQDTRGLFASEGEFVPHVDDEADAEDTLSWILEQAWCDGNVGMFGKSYLGVTQWQAAVSGVGGLKAIAPSMASADLYRAPWYGPGGALSVEALLGWSALIGRQLITSRSDARPEDAADFVQLAAICNDVAGAASVTPLAEQPLLGRLIPWVIDQVVDHPDNDESWQSISLFERLGGLATPALITAGWYDGFVGESLRTFVAVKDNADARLVVGPWSHSNLTGRNADRKFGCAATYPIQEATTMHKAFFDRHLRGETDALAGVPKVRLFVMGIDEWRDETDWPLPDTAYTPFYLGGSGAANTSTGGGTLSTSISGTESADTYLYDPADPVPSLGGTLLFHNGDNGPADQRPIHDRDDVLCYSTEVLTDPVEVTGTVSARLFVSSSAVDTDFTAKLVDVFPDGRAIALCDGIVRMRYRETLVNPTLIEAGEIYEVAIDMLATSNVFLPGHRIMVQVSSSNFPKYDRNSNTGGVIAREQLEEMCTAVNRIHRGPEHPSHIVLPIIKR | 211.8 | 59.3 µM | 12.23 s⁻¹ | – |
| T172R/G173Q/L196C/I301C/V116K/A51W: cocaine esterase mutant of SEQ ID No. 1 with the named mutations (protein, UniProt Q9L9D7 1-574, looked up, variant T172R G173Q L196C I301C V116K A51W) Cocaine esterase: MVDGNYSVASNVMVPMRDGVRLAVDLYRPDADGPVPVLLVRNPYDKFDVFWWSTQSTNWLEFVRDGYAVVIQDTRGLFASEGEFVPHVDDEADAEDTLSWILEQAWCDGNVGMFGKSYLGVTQWQAAVSGVGGLKAIAPSMASADLYRAPWYGPGGALSVEALLGWSALIGRQLITSRSDARPEDAADFVQLAAICNDVAGAASVTPLAEQPLLGRLIPWVIDQVVDHPDNDESWQSISLFERLGGLATPALITAGWYDGFVGESLRTFVAVKDNADARLVVGPWSHSNLTGRNADRKFGCAATYPIQEATTMHKAFFDRHLRGETDALAGVPKVRLFVMGIDEWRDETDWPLPDTAYTPFYLGGSGAANTSTGGGTLSTSISGTESADTYLYDPADPVPSLGGTLLFHNGDNGPADQRPIHDRDDVLCYSTEVLTDPVEVTGTVSARLFVSSSAVDTDFTAKLVDVFPDGRAIALCDGIVRMRYRETLVNPTLIEAGEIYEVAIDMLATSNVFLPGHRIMVQVSSSNFPKYDRNSNTGGVIAREQLEEMCTAVNRIHRGPEHPSHIVLPIIKR | 132.5 | 95.6 µM | 12.34 s⁻¹ | – |
